# Laboratory results published in publication PMC12785664, “Structure-Functional Examination of Cysteine Synthase A (CysK) from Limosilactobacillus reuteri LR1” (International Journal of Molecular Sciences, 2025).
# What was measured:
# [1] = target: T1, LreCysK (cysteine synthase A from Limosilactobacillus reuteri LR1, His-tag at N-terminus) (Limosilactobacillus reuteri, UniProt A0ABF7PP24); assay: differential scanning calorimetry, with versus without added PLP; assay type: binding; settings: 1.0 mM PLP, 0.1 M Na-phosphate pH 7.0, 1 °C/min; two calorimetric domains, domain 1 given
# T1 construct: gene cysK
# T1 sequence (A0ABF7PP24 2-307): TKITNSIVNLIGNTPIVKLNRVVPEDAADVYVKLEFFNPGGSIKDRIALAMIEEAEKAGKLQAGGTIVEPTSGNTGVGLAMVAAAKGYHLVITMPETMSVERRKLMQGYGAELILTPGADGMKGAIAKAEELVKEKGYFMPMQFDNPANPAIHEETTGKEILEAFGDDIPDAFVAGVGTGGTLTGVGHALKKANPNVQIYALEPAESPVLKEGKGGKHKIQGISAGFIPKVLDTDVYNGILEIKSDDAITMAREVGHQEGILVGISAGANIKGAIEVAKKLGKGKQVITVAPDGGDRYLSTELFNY
# Excerpt: differential scanning calorimetry, with versus without added PLP on LreCysK (cysteine synthase A from Limosilactobacillus reuteri LR1, His-tag at N-terminus)
# CC(=O)OC[C@H](N)C(=O)O = assay: purified protein; settings: saturating sulfide, 5 µM PLP, 10 mM HEPES pH 7.5
# Excerpt: HILIC HPLC determination of cysteine, nonlinear regression on LreCysK (cysteine synthase A from Limosilactobacillus reuteri LR1, His-tag at N-terminus)
# [2] = target: Cysteine synthase A (CysK) from Limosilactobacillus reuteri LR1 with His-tag on the N-terminus (Limosilactobacillus reuteri LR1); assay: SEC; analytical gel filtration, HiLoad 16/600 Superdex 200 pg, 1 mg of sample, calibrated with Gel Filtration Calibration Kit HMW; monomer to dimer
molecule,measurement,setting,value
Cc1ncc(COP(=O)(O)O)c(C=O)c1O [Pyridoxal-5 phosphate],"Tm, °C",[1],80.1 °C
"LreCysK (cysteine synthase A from Limosilactobacillus reuteri LR1, His-tag at N-terminus) (Limosilactobacillus reuteri)",Km,CC(=O)OC[C@H](N)C(=O)O,3.8 ± 0.6 mM
same,kcat,CC(=O)OC[C@H](N)C(=O)O,681 ± 45 s⁻¹
same,kcat/Km,CC(=O)OC[C@H](N)C(=O)O,179000 M⁻¹ s⁻¹
Cysteine synthase A (CysK) from Limosilactobacillus reuteri LR1 with His-tag on the N-terminus (enzyme),stoichiometry N,[2],2
